In one experiment the target is FVIIIa-FIXa complex (Homo sapiens, UniProt P00451+P00740). Conditions: by interfering with the assembly of the FVIIIa-FIXa complex; cited from earlier work.
Experiment [1] has as its target T1, wild-type recombinant FVIII light chain (Homo sapiens, UniProt P00451).
T1 construct: FVIII/FV^1811-1818 light chain chimera and wild-type FVIII light chain were purified employing Q-Sepharose chromatography; made in house; host or cells: murine fibroblasts (C127) cells
T1 sequence (P00451 1668-2351 limits assumed): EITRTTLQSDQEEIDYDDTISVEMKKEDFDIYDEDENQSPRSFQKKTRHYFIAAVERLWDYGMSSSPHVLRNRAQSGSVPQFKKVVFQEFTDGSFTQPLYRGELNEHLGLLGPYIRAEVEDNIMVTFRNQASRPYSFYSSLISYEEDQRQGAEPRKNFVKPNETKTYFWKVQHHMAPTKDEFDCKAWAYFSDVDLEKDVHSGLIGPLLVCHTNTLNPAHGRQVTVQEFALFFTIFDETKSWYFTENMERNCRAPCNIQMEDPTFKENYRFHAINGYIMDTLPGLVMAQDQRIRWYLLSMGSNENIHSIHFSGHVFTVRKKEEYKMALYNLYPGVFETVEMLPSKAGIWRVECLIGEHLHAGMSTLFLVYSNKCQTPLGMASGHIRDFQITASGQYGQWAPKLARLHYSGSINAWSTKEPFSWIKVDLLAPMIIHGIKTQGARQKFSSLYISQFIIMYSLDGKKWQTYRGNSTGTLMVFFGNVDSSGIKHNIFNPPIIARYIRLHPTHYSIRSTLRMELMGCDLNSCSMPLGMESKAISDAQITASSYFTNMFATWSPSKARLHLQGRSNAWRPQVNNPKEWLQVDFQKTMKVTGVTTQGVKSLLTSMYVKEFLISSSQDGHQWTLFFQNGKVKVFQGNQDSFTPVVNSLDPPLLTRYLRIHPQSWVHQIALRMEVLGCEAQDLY
The experiment can be described thus: SPR binding of scFv KM41 to wild-type recombinant FVIII light chain. Conditions: scFv 40 nM. The protocol: FIG. 7. Binding of scFv KM41 to the FVIII/FV^1811-1818 light chain chimera. ScFv EL14 at a CM5 sensor chip (67 fmol/mm^2) was incubated with either the recombinant wild-type FVIII light chain or the recombinant FVIII/FV^1811-1818 chimera till a density of 20 fmol/mm^2, in 150 mM NaCl, 50 mM Tris (pH 7.4). ScFv KM41 (40 nM) was passed over two separate channels with immobilized intact FVIII light chain (I) or FVIII/FV^1811-1818 chimera (II), respectively. Response is indicated as Resonance Units (RU) and is corrected for nonspecific binding.
The kinetics of protein interactions was determined by surface plasmon resonance (SPR) analysis, employing a BIAcore™2000 biosensor system (Biacore AS, Uppsala, Sweden). […] Association of analyte was assessed in 150 mM NaCl, 2 mM CaCl2, 0.005% (v/v) Tween® 20, and 20 mM Hepes (pH 7.4) for 2 min, at a flow rate of 20 μl/min at 25° C. […] The association (kon) and dissociation (koff) rate constants were determined by using the BIAevaluation software 3.1 (Biacore AB, Uppsala, Sweden). […] Equilibrium dissociation constants (kd) were calculated from the ratio koff/kon. […]
On the technique in general: Surface plasmon resonance follows binding to a sensor surface in real time, without labels.

In experiment [2] the target is T2, interaction between FVIII light chain and LRP (Homo sapiens, UniProt P00451).
T2 construct: from tissue; host or cells: FVIII light chain from plasma; LRP from placenta
T2 sequence (P00451 1668-2351 limits assumed): T1 sequence (P00451 1668-2351 limits assumed)
The experiment in a line: SPR competition: FVIII light chain binding to immobilized LRP. The following applies: FVIII light chain 50 nM; scFv 20-500 nM. The protocol: FIG. 4. Effect of scFv antibody fragments on the interaction between FVIII light chain and LRP. A, FVIII light chain (LCh) (25 nM) was incubated with immobilized LRP cluster II (1 pmol/well) in a volume of 50 μl in 150 mM NaCl, 5 mM CaCl2, 1% (w/v) HSA, 0.1% Tween® 20, and 50 mM Tris (pH 7.4) in the presence of various concentrations (0-100 nM) of scFv KM41 (closed circles) or scFv KM36 (open circles) for 2 h at 37° C. After washing with the same buffer, bound FVIII light chain was quantified by incubation with peroxidase-conjugated anti-FVIII antibody CLB-CAg 12 for 15 min at 37° C. Residual binding is expressed as the percentage of binding in the absence of competitor and is corrected for nonspecific binding (less than 5% relative to binding to LRP cluster II-immobilized wells). […] Binding was assessed in the absence (curve 1) or in the presence of increasing concentrations of scFv KM41 (20, 60, 300, 500 nM, curves 2-5, respectively). […]
The kinetics of protein interactions was determined by surface plasmon resonance (SPR) analysis, employing a BIAcore™2000 biosensor system (Biacore AS, Uppsala, Sweden). […] Association of analyte was assessed in 150 mM NaCl, 2 mM CaCl2, 0.005% (v/v) Tween® 20, and 20 mM Hepes (pH 7.4) for 2 min, at a flow rate of 20 μl/min at 25° C. […] Equilibrium dissociation constants (kd) were calculated from the ratio koff/kon. […]

Sequence of FVIIIa-FIXa complex (P00740 47-191 limits assumed, one chain of several): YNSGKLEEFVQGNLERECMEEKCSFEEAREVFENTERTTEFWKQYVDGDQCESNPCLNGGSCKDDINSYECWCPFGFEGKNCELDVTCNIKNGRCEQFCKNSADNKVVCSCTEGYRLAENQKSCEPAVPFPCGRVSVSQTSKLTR

B1: scFv KM41: scFv antibody fragment directed against FVIII region Arg^1803-Lys^1818 (protein)
scFv: QVQLLQSAADVKKPGASVKVSCTASGYIFTSYDIDWVRQATGQGLEWMGWMNPNSGNAGFAQKFKGRLTLTRDTSTSTAYMELRRLESEDTAVYYCARSTPHSYSGSGLPPTSDSWGQGTLVTVSSGGGGSGGGGSGGGGSEIVLTQSPGTLSLSPGERATLSCRASQSVSSSFLGWYQQKPGQAPRLLIYGASSRATGIPDRFSGSGSGTDFTLTISRLEPEDFAVYYCQQYGISPLTFGGGTKLEIKRAAAEQKLISEEDLNGAAHHHHHH
B1: the “Inhibition of FVIII procoagulant activity” value in the experiment with FVIIIa-FIXa complex is “effective inhibitors”. Also, in experiment [1], the “Binding of scFv to immobilized wild-type recombinant FVIII light chain” value was “readily reacted”. Besides, the “Effect on association of FVIII light chain with immobilized LRP” value in experiment [2] was “only partially inhibits”.

The record behind these values is US8586538B2, “Method of treating a patient suffering from a bleeding disorder comprising administering an antibody against the A3-C1 of FVIII” (Stichting Sanquin Bloedvoorziening, priority 2002, dated 2013).
